The target in assay [1] is Respiratory Syncytial Virus fusion glycoprotein (RSV F) on RSV-A2 virus (Respiratory Syncytial Virus, UniProt P03420 26-574). Briefly: cell-based or functional assay.
Assay [2] deals with RSV prefusion F (preF), DS-Cav1 (Respiratory Syncytial Virus, UniProt P03420 26-513). Briefly: BLI (ForteBio Octet), IgG on anti-human IgG biosensors.
Assay [3] deals with RSV postfusion F (postF), F ΔFP (Respiratory Syncytial Virus, UniProt P03420 26-513). Briefly: BLI (ForteBio Octet), IgG on anti-human IgG biosensors, 100 nM antigen, apparent (IgG) KD. Background: BLI is a label-free optical method that tracks binding on a fibre tip over time.
The target of assay [4] is RSV prefusion F (preF), DS-Cav1 stabilized trimer, subtype A (Respiratory Syncytial Virus, subtype A, UniProt P03420 26-513). Briefly: BLI, IgG on anti-human IgG sensors.
Assay [5] addresses RSV F on RSV subtype A virus (RSV-A2) (Respiratory Syncytial Virus, subtype A, …, UniProt P03420 26-574). Briefly: cell-based or functional assay.
For assay [6], the target named is RSV postfusion F (postF), F ΔFP trimer, subtype A (Respiratory Syncytial Virus, subtype A, UniProt P03420 26-513). Briefly: BLI, IgG on anti-human IgG sensors, 100 nM antigen, apparent KD.
The target in assay [7] is T1, postF (RSV F ΔFP) with a C-terminal HRV 3C cleavage site, 8xHisTag and StrepTagII (Respiratory Syncytial Virus, UniProt P03420 26-109; P03420 147-513).
T1 construct: also called postfusion F; not shown: C-terminal HRV 3C cleavage site, 8xHisTag and StrepTagII
Briefly: SPR, postF captured on NTA chip, Fab in solution, steady-state fit. In general terms: Surface plasmon resonance follows binding to a sensor surface in real time, without labels.

B1: ADI-43647 (antibody, V domains shown)
VH: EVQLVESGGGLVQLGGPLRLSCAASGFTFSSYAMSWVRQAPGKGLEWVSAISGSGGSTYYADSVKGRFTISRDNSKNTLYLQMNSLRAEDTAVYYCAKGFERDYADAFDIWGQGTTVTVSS
VL: DIRMTQSPSSVSASVGDRVTITCRASQGISSWLAWYQQKPGKAPKLLIYAASSLQSGVPSRFSGSGSGTDFTLTISSLQPEDFATYYCQQANSFPITFGQGTRLEIK
notes: also called Ab 828; Antibody Number 828
With B1, in assay [1], the “Neutralization IC50 (RSV subtype A)” value was more than 25 µg/mL. In addition, the binding result in assay [2] is reported as “no binding”. The Kd in assay [3] came out at 44.6 nM.

B2: ADI-43639 (antibody, V domains shown)
VH: QVQLVQSGSELKKPGASVKVSCKASGYTFTSYAMNWVRQAPGQGLEWMGWINTNTGNPTYAQGFTGRFVFSLDTSVSTAYLQISSLKAEDTAVYYCAAYGIHDAFDIWGQGTMVTVSS
VL: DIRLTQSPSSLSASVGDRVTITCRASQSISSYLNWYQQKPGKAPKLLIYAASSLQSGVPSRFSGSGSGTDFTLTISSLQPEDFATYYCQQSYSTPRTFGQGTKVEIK
On to B2, for which the binding result in assay [4] is on record as “no binding (tested: 100 nM antigen)”. The “Neutralization IC50 (RSV subtype A)” value in assay [5] is more than 25 µg/mL. Further, the Kd in assay [6] is 233 nM.

B3: ADI-43648 (antibody, V domains shown)
VH: EVQLVQSGAEVKKPGASVKVSCKASGYTFTSYDINWVRQATGQGLEWMGWMNPNSGNTGYAQKFQGRVTMTRNTSISTAYMELSSLRSEDTAVYYCATRPAALDYWGQGTLVTVSS
VL: QPVLTQPLSVSVALGQTARITCGGNNIGSKNVHWYQQKPGQAPVLIIYRDSNRPSGIPERFSGSNSGNTATLTISRAQAGDEADYYCQVWDSSTWVFGGGTKLTVL
Take B3: the “Neutralization IC50 (RSV subtype A)” value in assay [1] was more than 25 µg/mL. For the same molecule, in assay [2], the binding result was “no binding”. Further, in assay [3], the Kd came to 28.6 nM.

B4: ADI-14359 R50L Fab (germline reverted variant) (Fab, V domains shown)
VH: QVQLVQSGPALVKPTQTLTLTCTFSGFSLSTSGMCVSWIRQPPGKALEWLALIDWDDDKYYSTSLKTRLTISKDTSKNQVVLTMTNMDPVDTATYYCARATNYDSSGYYSLYFDYWGQGTLVTVSS
VL: not shown
B4: the “fold reduction in affinity relative to ADI-14359 Fab” value in assay [7] was more than 30 fold.

B5: ADI-43638 (antibody, V domains shown)
VH: QVQLQQWGAGLLKPSETLSLTCAVYGGSFSGYYWSWIRQPPGKGLEWIGEINHSGSTNYNPSLKSRVTISVDTSKNQFSLKLSSVTAADTAVYYCARGVPVLRYFDWLRFGYGMDVWGQGTTVTVSS
VL: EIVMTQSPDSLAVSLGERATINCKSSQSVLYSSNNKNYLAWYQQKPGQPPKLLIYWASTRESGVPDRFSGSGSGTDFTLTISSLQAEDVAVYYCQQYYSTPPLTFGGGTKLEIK
As for B5, the binding result in assay [4] was “no binding (tested: 100 nM antigen)”. For the same molecule, the “Neutralization IC50 (RSV subtype A)” value in assay [5] was more than 25 µg/mL. Moreover, in assay [6], the Kd worked out at 9.93 nM.

Values taken from patent US20260258115A1 (MAPP BIOPHARMACEUTICAL, published 2026).
